Laboratory results as given in paper doi:10.1101/2025.06.05.658000.

Columns and labels:
[1] = target: HLA-DR (DRA1*01:01 / DRB1*04:05), soluble knob-into-hole Fc heterodimer (human); assay: ELISA
[2] = target: HLA-DR (DRA1*01:01 / DRB1*11:04), soluble knob-into-hole Fc heterodimer (human); assay: ELISA

Row | Substance | fold decline of binding affinity compared to RBD WT [1] | fold decline of binding affinity compared to RBD WT [2]
1 | SARS-CoV-2 RBD peptide RBD447-461 of the BA.2.86 variant (from UniProt P0DTC2 447-461) | > 16 fold | > 16 fold
2 | SARS-CoV-2 RBD peptide RBD447-461 of the Omicron BA.5 variant (from UniProt P0DTC2 447-461) | > 16 fold | > 16 fold
